Experimental data reported in the Human Domainome abundance scans (Beltran et al. 2025).
± gives the uncertainty stated by the source.

B1: POU domain, class 3, transcription factor 2, residues 356 to 411; numbered along this chain, P20265 (parent)
chain: KKRTSIEVSVKGALESHFLKCPKPSAQEITSLADSLQLEKEVVRVWFCNRRQKEKR

Variants of: B1
Experiment: abundance fitness (aPCA) (normalised: wild type 0, dead -1); higher = more abundant; growth selection in yeast, the domain comes from the species named
Conditions: Homo sapiens

Variant	abundance fitness
E28T	-0.088 ± 0.12
E28F	-0.511 ± 0.12
E28M	-0.437 ± 0.17
E28A	-0.257 ± 0.088
E28C	-0.299 ± 0.12
E28P	-0.802 ± 0.18
E28S	-0.455 ± 0.1
E28L	-0.369 ± 0.1
E28K	-0.413 ± 0.17
E28N	-0.551 ± 0.22
E28Q	-0.402 ± 0.13
E28I	-0.52 ± 0.14
E28W	-0.505 ± 0.14
E28R	-0.466 ± 0.093
E28V	-0.195 ± 0.086
E28D	-0.281 ± 0.21
K23Y	-0.312 ± 0.16
K23C	0.023 ± 0.13
K23V	-0.045 ± 0.092
K23L	-0.203 ± 0.069
K23G	-0.426 ± 0.095
K23N	0.105 ± 0.14
K23T	0.086 ± 0.1
K23E	0.072 ± 0.099

Variant	abundance fitness
K23P	-0.863 ± 0.17
K23R	-0.041 ± 0.078
K23D	0.093 ± 0.17
K23Q	-0.002 ± 0.12
K23M	-0.077 ± 0.11
K23W	-0.336 ± 0.13
K23F	-0.163 ± 0.12
K23S	0.024 ± 0.083
K23I	-0.117 ± 0.16
K23A	-0.135 ± 0.094
L32A	-0.994 ± 0.18
L32Y	-0.831 ± 0.21
L32D	-1.03 ± 0.25
L32V	-0.303 ± 0.096
L32F	-0.341 ± 0.16
L32K	-0.927 ± 0.33
L32M	-0.08 ± 0.15
L32E	-0.916 ± 0.21
L32S	-0.875 ± 0.12
L32R	-0.911 ± 0.11
L32N	-1.07 ± 0.3
L32I	-0.161 ± 0.16
L32T	-0.943 ± 0.22
L32H	-0.857 ± 0.19

Variant	abundance fitness
L32P	-0.944 ± 0.28
L32G	-0.834 ± 0.11
L32W	-0.915 ± 0.15
L32Q	-0.789 ± 0.2
P24C	-0.731 ± 0.19
P24A	-0.789 ± 0.16
P24Q	-0.86 ± 0.37
P24T	-0.986 ± 0.31
P24I	-0.919 ± 0.38
P24S	-0.998 ± 0.18
P24E	-0.846 ± 0.21
P24V	-0.821 ± 0.096
P24F	-0.999 ± 0.29
P24W	-0.839 ± 0.16
P24L	-0.936 ± 0.12
P24M	-0.628 ± 0.14
P24G	-0.691 ± 0.11
A33I	-1.03 ± 0.42
A33M	-0.759 ± 0.26
A33P	-0.794 ± 0.19
A33F	-0.599 ± 0.12
A33V	-0.71 ± 0.13
A33C	-0.428 ± 0.099
A33R	-0.936 ± 0.1

Variant	abundance fitness
A33N	-0.963 ± 0.33
A33K	-0.631 ± 0.17
A33T	-0.83 ± 0.17
A33Q	-1.12 ± 0.33
A33W	-0.735 ± 0.17
A33S	-0.236 ± 0.087
A33E	-0.55 ± 0.26
A33Y	-0.963 ± 0.2
A33H	-0.789 ± 0.25
A33G	-0.806 ± 0.12
Q27E	-0.155 ± 0.094
Q27W	-0.292 ± 0.089
Q27M	-0.35 ± 0.14
Q27T	0.02 ± 0.11
Q27S	-0.079 ± 0.087
Q27N	0.028 ± 0.22
Q27K	-0.014 ± 0.15
Q27Y	-0.268 ± 0.14
Q27H	0.092 ± 0.15
Q27C	-0.081 ± 0.1
Q27G	-0.131 ± 0.061
Q27A	-0.126 ± 0.085
Q27F	-0.327 ± 0.12
Q27V	-0.061 ± 0.082

Variant	abundance fitness
Q27R	-0.007 ± 0.068
Q27D	-0.08 ± 0.13
Q27I	-0.14 ± 0.14
Q27P	-0.21 ± 0.16
L38K	-0.927 ± 0.17
L38D	-0.983 ± 0.19
L38Q	-0.519 ± 0.12
L38S	-0.924 ± 0.13
L38A	-0.713 ± 0.11
L38I	-0.191 ± 0.14
L38P	-0.969 ± 0.17
L38W	-0.804 ± 0.1
L38N	-0.964 ± 0.23
L38T	-0.26 ± 0.096
L38G	-0.871 ± 0.076
L38V	-0.119 ± 0.074
L38F	-0.788 ± 0.24
L38E	-0.696 ± 0.14
L38Y	-0.827 ± 0.17
I29Q	-0.782 ± 0.19
I29V	-0.158 ± 0.11
I29F	-0.786 ± 0.2
I29L	-0.095 ± 0.089
I29E	-0.763 ± 0.31

Variant	abundance fitness
I29N	-1.05 ± 0.25
I29Y	-0.741 ± 0.17
I29S	-0.884 ± 0.11
I29R	-0.93 ± 0.099
I29K	-0.994 ± 0.36
I29H	-0.817 ± 0.26
I29M	-0.093 ± 0.14
I29A	-1.03 ± 0.23
I29W	-0.855 ± 0.16
I29T	-0.593 ± 0.17
I29C	-0.633 ± 0.14
E41C	-0.558 ± 0.12
E41D	-0.114 ± 0.14
E41A	-0.238 ± 0.12
Q37N	-0.077 ± 0.18
Q37F	-0.183 ± 0.12
Q37P	-0.916 ± 0.15
Q37K	-0.064 ± 0.1
Q37S	-0.032 ± 0.073
Q37V	-0.394 ± 0.073
Q37M	-0.151 ± 0.1
Q37D	-0.192 ± 0.14
Q37W	-0.394 ± 0.12
Q37C	0.087 ± 0.14

Variant	abundance fitness
Q37Y	-0.353 ± 0.14
Q37I	-0.63 ± 0.13
Q37T	-0.316 ± 0.11
Q37L	-0.245 ± 0.07
Q37A	-0.054 ± 0.071
Q37R	-0.138 ± 0.074
D34R	0.244 ± 0.073
D34M	0.01 ± 0.13
D34H	0.212 ± 0.15
D34Y	0.184 ± 0.2
D34E	-0.023 ± 0.12
D34Q	0.105 ± 0.11
D34W	0.153 ± 0.083
D34G	-0.1 ± 0.08
D34A	0.082 ± 0.092
D34T	0.055 ± 0.099
D34V	-0.04 ± 0.081
D34K	0.191 ± 0.14
D34S	-0.041 ± 0.08
D34P	-0.719 ± 0.1
D34F	0.031 ± 0.16
D34N	0.148 ± 0.12
D34L	0.098 ± 0.077
P22A	-0.044 ± 0.088

Variant	abundance fitness
P22R	-0.367 ± 0.08
P22F	-0.996 ± 0.37
P22K	-0.348 ± 0.13
P22G	-0.46 ± 0.09
P22I	-0.704 ± 0.17
P22W	-0.699 ± 0.13
P22V	-0.713 ± 0.082
P22E	-0.246 ± 0.11
P22H	-0.189 ± 0.17
P22Q	0.137 ± 0.13
P22L	-0.919 ± 0.11
P22N	-0.337 ± 0.15
P22S	-0.253 ± 0.1
P22C	-0.227 ± 0.15
P22Y	-0.718 ± 0.16
P22T	-0.313 ± 0.1
P22D	-0.122 ± 0.12
K20Q	-0.443 ± 0.16
K20N	-0.262 ± 0.13
K20H	-0.463 ± 0.27
K20S	-0.248 ± 0.095
K20L	-0.322 ± 0.082
K20G	-0.466 ± 0.09
K20V	-0.323 ± 0.096

Variant	abundance fitness
K20R	-0.223 ± 0.076
K20P	-1.03 ± 0.16
K20M	-0.336 ± 0.12
K20Y	-0.379 ± 0.17
K20I	-0.215 ± 0.13
K20T	-0.16 ± 0.11
K20W	-0.605 ± 0.12
K40N	0.021 ± 0.19
K40D	-0.344 ± 0.16
K40V	0.007 ± 0.11
K40L	-0.147 ± 0.083
K40E	0.096 ± 0.12
K40S	-0.036 ± 0.085
K40G	-0.085 ± 0.078
K40M	-0.013 ± 0.17
K40C	-0.153 ± 0.095
K40H	0.132 ± 0.21
K40R	0.017 ± 0.066
K40Q	0.078 ± 0.12
K40W	-0.178 ± 0.1
K40A	-0.017 ± 0.097
K40P	-0.027 ± 0.12
K40F	-0.004 ± 0.13
E39S	-0.039 ± 0.076

Variant	abundance fitness
E39M	-0.941 ± 0.16
E39A	-0.224 ± 0.11
E39R	-0.404 ± 0.083
E39I	-0.982 ± 0.37
E39Y	-0.653 ± 0.16
E39G	-0.324 ± 0.088
E39C	-0.133 ± 0.093
E39T	-0.159 ± 0.12
E39K	-0.121 ± 0.13
E39L	-0.847 ± 0.11
E39H	0.036 ± 0.12
E39P	-0.244 ± 0.13
E39W	-0.943 ± 0.17
E39F	-1.01 ± 0.26
E39N	-0.217 ± 0.13
T30F	-0.396 ± 0.15
T30I	-0.237 ± 0.11
T30Y	-0.285 ± 0.11
T30V	-0.016 ± 0.079
T30S	0.036 ± 0.077
T30H	-0.205 ± 0.15
T30L	-0.091 ± 0.083
T30E	0.022 ± 0.11
T30D	0.05 ± 0.15

Variant	abundance fitness
T30N	0.212 ± 0.13
T30K	0.008 ± 0.14
T30W	-0.324 ± 0.082
T30C	-0.131 ± 0.098
T30A	-0.041 ± 0.11
T30Q	0.078 ± 0.14
T30R	-0.151 ± 0.069
L36V	-0.53 ± 0.072
L36H	-0.527 ± 0.15
L36Y	-0.151 ± 0.14
L36D	-0.842 ± 0.16
L36P	-0.608 ± 0.21
L36Q	-1.25 ± 0.27
L36G	-0.866 ± 0.085
L36N	-0.543 ± 0.14
L36W	-0.545 ± 0.13
L36T	-0.7 ± 0.11
L36R	-0.938 ± 0.11
L36F	-0.291 ± 0.13
L36M	-0.564 ± 0.14
L36A	-0.929 ± 0.1
L36I	-0.7 ± 0.16
L36C	-0.428 ± 0.17
L36E	-0.892 ± 0.12

Variant	abundance fitness
L36K	-0.868 ± 0.16
C21Y	-0.506 ± 0.13
C21Q	-0.01 ± 0.15
C21I	-0.484 ± 0.17
C21W	-0.437 ± 0.11
C21M	-0.354 ± 0.11
C21L	-0.651 ± 0.094
C21D	-0.062 ± 0.16
C21E	-0.072 ± 0.13
C21V	-0.421 ± 0.092
C21G	-0.521 ± 0.081
C21F	-0.351 ± 0.11
C21K	-0.478 ± 0.19
C21P	-1.14 ± 0.33
C21R	-0.419 ± 0.077
C21N	-0.168 ± 0.16
C21A	-0.304 ± 0.11
S25L	-0.423 ± 0.093
S25R	-0.47 ± 0.1
S25M	-0.446 ± 0.19
S25A	-0.322 ± 0.1
S25N	-0.167 ± 0.21
S25H	-0.467 ± 0.17
S25F	-0.902 ± 0.3

Variant	abundance fitness
S25V	-0.725 ± 0.094
S25T	0.038 ± 0.12
S25I	-0.793 ± 0.23
S25K	-0.318 ± 0.14
S25Y	-0.798 ± 0.27
S25G	-0.194 ± 0.087
S25C	-0.231 ± 0.14
S25P	-0.579 ± 0.14
S35H	-0.026 ± 0.18
S35K	0.136 ± 0.15
S35C	-0.133 ± 0.13
S35A	-0.086 ± 0.11
S35F	-0.22 ± 0.11
S35L	-0.065 ± 0.088
S35I	-0.062 ± 0.15
S35M	-0.095 ± 0.12
S35R	0.051 ± 0.083
S35D	0.091 ± 0.19
S35W	-0.113 ± 0.11
S35N	-0.125 ± 0.14
S35Y	-0.115 ± 0.13
S35Q	0.008 ± 0.13
S35T	0.026 ± 0.097
S35E	0.03 ± 0.1

Variant	abundance fitness
S35G	-0.033 ± 0.08
S35P	-0.961 ± 0.14
S35V	-0.119 ± 0.11
A26D	0.151 ± 0.13
A26G	-0.141 ± 0.078
A26K	-0.162 ± 0.15
A26P	-0.224 ± 0.13
A26T	-0.033 ± 0.12
A26C	-0.244 ± 0.13
A26E	-0.064 ± 0.093
A26Q	0.01 ± 0.14
A26I	-0.05 ± 0.14
A26N	-0.097 ± 0.17
A26F	-0.312 ± 0.18
A26M	0.03 ± 0.13
A26L	-0.179 ± 0.089
A26W	-0.11 ± 0.12
A26Y	-0.235 ± 0.18
A26V	-0.049 ± 0.068
A26R	-0.13 ± 0.076
A26H	-0.059 ± 0.16
A26S	-0.134 ± 0.078
